Reference: FireProtDB (doi:10.1093/protein/12.10.841)

Conditions: Homo sapiens; pH 2.7; Thermal; DSC; glycine 0.05 M; reversible: yes; whole UniProt chain shown

B1: Lysozyme C wild type, P61626 (protein)
chain: MKALIVLGLVLLSVTVQGKVFERCELARTLKRLGMDGYRGISLANWMCLAKWESGYNTRATNYNAGDRSTDYGIFQINSRYWCNDGKTPGAVNACHLSCSALLQDNIADAVACAKRVVRDPQGIRAWVAWRNRCQNRDVRQYVQGCGV
For B1, the Tm was 64.9 °C, the “heat capacity change of unfolding” value was 1.58 kcal/mol/K and the “unfolding enthalpy (calorimetric)” value was 114 kcal/mol. For the same protein, the “unfolding enthalpy (van 't Hoff)” value was 120 kcal/mol.
